Results taken from US20230125561A1 (published 2023).

Target: SARS-CoV-2 Spike S1 protein, B.1.351 (S. African) variant (SARS-CoV-2, UniProt P0DTC2 16-685)
Experiment: ELISA

B1: Neumifil (HEX17: trimeric (hexavalent) form based on S. pneumoniae CBM40) (designed binder)
chain: GAMVIEKEDVETNASNGQRVDLSSELDKLKKLENATVHMEFKPDPKAPAFYNLFSVSSATKKDEYFTMAVYNNTATLEGRGSDGKQFYNNYNDAPLKVKPGQWNSVTFTVEKPTAELPKGRARLYVNGGLSRTSLRSGNFIKDMPDVTHVQIGATKRANNTVWGSNLQIRNLTVYNRALTPEEVQKRSGGGSGVIEKEDVETNASNGQRVDLSSELDKLKKLENATVHMEFKPDPKAPAFYNLFSVSSATKKDEYFTMAVYNNTATLEGRGSDGKQFYNNYNDAPLKVKPGQWNSVTFTVEKPTAELPKGRARLYVNGGLSRTSLRSGNFIKDMPDVTHVQIGATKRANNTVWGSNLQIRNLTVYNRALTPEEVQKRSGGSLGVPDFESDWFDVSSNSLYTLSHGLQRSPRRVVVEFARSSSPSTWNIVMPSYFNDGGHKGSGAQVEVGSLNIKLGTGAAVWGTGYFGGIDNSATTRFATGYYRVRAWI
- EC50: 0.17 mg/L
